Molecular target: CD63 on SH-SY5Y exosomes (UniProt P08962 2-238)
Assay: flow cytometry on exosome-coated microspheres; 200 nM probe; 5 mM Mg2+; about 10^3-fold (printed 103-fold) fluorescence over control and MU-Cy5; 1x PBS, 5 mM MgCl2, 0.2% BSA (w/v), 37 C, 1 h; exosome-coated microspheres blocked with glycine/BSA; pH not stated
Conditions: protein: native; label: 3' Cy5

Chain of CD63 on SH-SY5Y exosomes (P08962 2-238): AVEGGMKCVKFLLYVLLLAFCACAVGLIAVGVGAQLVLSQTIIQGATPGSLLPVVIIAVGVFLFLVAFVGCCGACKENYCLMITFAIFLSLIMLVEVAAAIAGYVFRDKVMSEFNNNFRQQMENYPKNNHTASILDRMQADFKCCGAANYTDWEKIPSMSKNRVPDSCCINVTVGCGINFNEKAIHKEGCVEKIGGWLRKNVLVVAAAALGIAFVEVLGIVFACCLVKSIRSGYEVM

B1: Apt-CD63-Cy5 (ssDNA)
DNA: ATATACACCCCACCTCGCTCCCGTGACACTAATGCTATTTTTTTTTTTTTTTGACGCTAATAGTTAAGACGCT
B1: binds.

Reference: paper PMC11117858, “APPROACH: Sensitive Detection of Exosomal Biomarkers by Aptamer-Mediated Proximity Ligation Assay and Time-Resolved Förster Resonance Energy Transfer”
